In test [1] the target is EGFR-EGFP with deletion of the dimerization arm, residues 242 to 259 (human) (UniProt P00533). Kind of test: single-molecule stepwise photobleaching (TIRF microscopy); EGFP fusions on the membrane of live Xenopus oocytes, without EGF; ~1 to ~5 molecules per um^2; room temperature; 20 Hz; 3% two-step baseline (Claudin-16) subtracted.
Test [2] deals with Src13-GCN4: c-Src membrane localization sequence, coiled-coil segment of GCN4, EGFP or mCherry. Kind of test: PIE-FCCS (pulsed-interleaved excitation fluorescence cross-correlation spectroscopy); control constructs with the c-Src membrane localization sequence, EGFP and mCherry fusions coexpressed; data collected previously on the same instrument and reproduced here; median fraction correlated fc.

Test [3] concerns the target Src13-GCN4-EGFRk: c-Src membrane localization sequence, coiled-coil segment of GCN4 joined to the N-terminus of the kinase domain of EGFR, EGFP or mCherry (UniProt P00533). The description is as above.

As to “EGFR-EGFP with deletion of the dimerization arm, residues 242 to 259 (from UniProt P00533 25-1210) (receptor)”, the fraction of two-step photobleaching events (baseline subtracted) in test [1] amounted to 9%.
On to “Src13-GCN4: c-Src membrane localization sequence, coiled-coil segment of GCN4, EGFP or mCherry”, for which the fraction correlated fc (median) in test [2] turned out to be 0.13.
On to “Src13-GCN4-EGFRk: c-Src membrane localization sequence, coiled-coil segment of GCN4 joined to the N-terminus of the kinase domain of EGFR, EGFP or mCherry (from UniProt P00533 712-979)”, for which, in test [3], the fraction correlated fc (median) amounted to 0.23.

The values are drawn from PMC4902571.
